Patent US20230192842A1 (published 2023)
Substitutions are numbered along the chain they refer to.

Key:
[1] = target: T1, human CLDN3 E153A mutant on RKO KO cells (human, UniProt O15551 1-220); assay: flow cytometry, % 906-mAb-PE positive of live cells
T1 construct: Single-point alanine mutant, monoclonal RKO KO line with GFP
T1 chain: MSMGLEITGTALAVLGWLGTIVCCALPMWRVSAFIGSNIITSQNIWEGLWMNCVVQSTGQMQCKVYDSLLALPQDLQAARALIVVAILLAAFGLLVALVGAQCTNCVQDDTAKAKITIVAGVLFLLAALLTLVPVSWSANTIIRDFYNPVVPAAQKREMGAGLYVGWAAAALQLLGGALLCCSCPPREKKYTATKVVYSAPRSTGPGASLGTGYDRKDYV
Experimental: (§1) Flow cytometry. RKO KO target cells were seeded for flow cytometry as described in previous sections. Wells were topped up with flow buffer (PBS+2% FBS+2 mM EDTA+0.05% sodium azide) and plates were centrifuged at 300×g for 5 minutes. Supernatant was flicked off, cells were resuspended in 150 uL flow buffer. Plate was centrifuged at 300×g for 5 minutes. Supernatant was flicked off and cells were resuspended in 50 uL IgG block at 1:100 for 10 minutes at RT. Following incubation, plate was washed twice as above. Cells were resuspended in 50 uL of diluted antibodies (all a 1 in 300 dilution) in flow buffer, or flow buffer alone (unstained control). Cells were incubated for 30 minutes at RT. After incubation, plates were washed twice with 150 uL flow buffer. […]
(§2) Data Analysis: Flow Cytometry. Flow cytometry data was analysed using FLOWJO and further analysed in Microsoft excel and RStudio. […] Statistics for % PE-positive cells (as % of live cells) and Median Fluorescence Intensity (MFI) were calculated in FLOWJO and exported to Microsoft Excel for further analysis. […] Briefly, MFI was log 10 transformed and a mixed model was used with a fixed effect for cell line and a random effect for Plate, whilst % Parent was analysed on a linear scale in a mixed model with a fixed effect for cell line and a random effect for plate.

[2] = target: T2, human CLDN3 N38A mutant on RKO KO cells (human, UniProt O15551 1-220); assay: as above
T2 construct: Single-point alanine mutant, monoclonal RKO KO line with GFP
T2 chain: T1 chain with N38A, A153E
Experimental: as §1, §2

[3] = target: T1, human CLDN3 E153A mutant on RKO KO cells; assay: flow cytometry, 906-mAb-PE on RKO KO cells expressing the mutant
Experimental: (§3) Flow cytometry. RKO KO target cells were seeded for flow cytometry as described in previous sections. Wells were topped up with flow buffer (PBS+2% FBS+2 mM EDTA+0.05% sodium azide) and plates were centrifuged at 300×g for 5 minutes. Supernatant was flicked off, cells were resuspended in 150 uL flow buffer. Plate was centrifuged at 300×g for 5 minutes. Supernatant was flicked off and cells were resuspended in 50 uL IgG block at 1:100 for 10 minutes at RT. Following incubation, plate was washed twice as above. Cells were resuspended in 50 uL of diluted antibodies (all a 1 in 300 dilution) in flow buffer, or flow buffer alone (unstained control). Cells were incubated for 30 minutes at RT. After incubation, plates were washed twice with 150 uL flow buffer. Cells were then resuspended in 100 uL flow buffer containing DAPI at a 1:200 concentration as a live/dead stain. Cells were run immediately on the CYTOFLEXS. Cells were acquired on fast flow rate, with a stopping condition of 10,000 live cells (based on Total>Singlets>Live).
(§4) Cell lines for analysis included RKO KO, a CLDN3 knockout (included as a negative control), RKO KO CLDN3 mutant cells (with various single-amino acid CLDN3 mutations) and RKO KO CLDN3 WT cells (positive control). RKO KO CLDN3 mutant cell lines were selected and generated as outlined in previous sections.

[4] = target: T2, human CLDN3 N38A mutant on RKO KO cells; assay: as above
Experimental: as §3, §4

[5] = target: T1, human CLDN3 E153A mutant on RKO KO cells; assay: as above
Experimental: as §1, §2

[6] = target: T2, human CLDN3 N38A mutant on RKO KO cells; assay: as above
Experimental: as §1, §2

B1: 906-mAb (anti-CLDN3 906-mAb, monoclonal antibody version of the scFv of 906-009_LNGFR) (antibody, V domains shown)
VH: QVQLVQSGAEVKKPGSSVKVSCKASGYTFTNYWVHWVRQAPGQGLEWMGRIEPNSSGSQYNEKFKNRVTITADKSTSTAYMELSSLRSEDTAVYYCARGVMVPLDYWGQGTLVTVSS
VL: DIQMTQSPSSLSASVGDRVTITCKASQDINRYIAWYQQKPGKAPKLLIHYTSTLQPGVPSRFSGSGSGTDFTLTISSLQPEDFATYYCLQYETLYSFGQGTKLEIK
In the case of B1, the “Change in % Parent (906-mAb-PE positive cells) vs CLDN3 WT” value [1] is reported as -94.5%, the “Change in % Parent (906-mAb-PE positive cells) vs CLDN3 WT” value [2] is reported as -99.2% and the binding result [3] is reported as “no binding”. For the same binder, the binding result [4] was “no binding”, the “fold change MFI vs CLDN3 WT” value [5] was 0.01 fold vs CLDN3 WT and the “fold change MFI vs CLDN3 WT” value [6] was 0.01 fold vs CLDN3 WT.
